Data from patent USRE48558 (Genentech, dated 2021).
Changes are numbered by the printed parent chain.

T1: extracellular domain of human CD79b (human, UniProt P40259 29-159)
T1 construct: also called huCD79becd; huCD79b-ecd
T1 sequence: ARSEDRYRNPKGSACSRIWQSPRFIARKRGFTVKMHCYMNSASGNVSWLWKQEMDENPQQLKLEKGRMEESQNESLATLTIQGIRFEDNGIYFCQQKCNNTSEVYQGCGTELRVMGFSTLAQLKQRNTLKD

B1: huMA79b graft variant SEQ ID NO: 33 (Fab, name in Kabat numbering, V domains shown)
VH: EVQLVESGGGLVQPGGSLRLSCAASGYTFSSYWIEWVRQAPGKGLEWVGEILPGGGDTNYNEIFKGRFTISADTSKNTAYLQMNSLRAEDTAVYYCTRRVPVYFDYWGQGTLVTVSS
VL: DIQMTQSPSSLSASVGDRVTITCKASQSVDYDGDSFLNWYQQKPGKAPKLLIYASRYLSRGVPSRFSGSGSGTDFTLTISSLQPEDFATYYCQQSNEDPLTFGQGTKVEIKR
notes: Fab on phage; rest as huMA79b graft
B2: huMA79b graft variant SEQ ID NO: 82 (Fab, name in Kabat numbering, V domains shown)
VH: B1 VH with T28P, S30N, S31R
VL: B1 VL with S55A, R56S, Y57N, S59E, R60S
notes: as for B1
B3: huMA79b graft variant SEQ ID NO: 86 (Fab, name in Kabat numbering, V domains shown)
VH: B1 VH with Y27F, T28P, S30N, S31R, E35N
VL: B1 VL with S55A, R56S, Y57N, S59E, R60S
notes: as for B1
B4: huMA79b graft variant SEQ ID NO: 71 (Fab, name in Kabat numbering, V domains shown)
VH: B1 VH with S31G, E35N
VL: B1 VL with S55A, R56S, Y57N, S59E, R60S
notes: as for B1
B5: huMA79b graft variant SEQ ID NO: 49 (Fab, name in Kabat numbering, V domains shown)
VH: B1 VH
VL: B1 VL with S55A, R56S, Y57N, S59E, R60S, E97D
notes: as for B1
B6: huMA79b graft variant SEQ ID NO: 64 (Fab, name in Kabat numbering, V domains shown)
VH: B1 VH with T28P, S30T, E35Q
VL: B1 VL with S55A, R56S, Y57N, S59E, R60S
notes: as for B1
B7: huMA79b graft variant SEQ ID NO: 70 (Fab, name in Kabat numbering, V domains shown)
VH: B1 VH with S30T
VL: B1 VL with S55A, R56S, Y57N, S59E, R60S
notes: as for B1
B8: huMA79b graft variant SEQ ID NO: 62 (Fab, name in Kabat numbering, V domains shown)
VH: B1 VH with T28P, S30G, S31R, I34V, E35N
VL: B1 VL with S55A, R56S, Y57N, S59E, R60S
notes: as for B1
B9: huMA79b graft variant SEQ ID NO: 52 (Fab, name in Kabat numbering, V domains shown)
VH: B1 VH
VL: B1 VL with S55A, R56S, Y57N, S59E, R60S, Q94P, S95D, D98A, L100R
notes: as for B1
B10: huMA79b graft variant SEQ ID NO: 77 (Fab, name in Kabat numbering, V domains shown)
VH: B1 VH with T28P, S30T, S31R
VL: B1 VL with S55A, R56S, Y57N, S59E, R60S
notes: as for B1
B11: huMA79b graft variant SEQ ID NO: 101 (Fab, name in Kabat numbering, V domains shown)
VH: B1 VH with Y103R
VL: B1 VL with S55A, R56S, Y57N, S59E, R60S
notes: as for B1
B12: huMA79b graft variant SEQ ID NO: 51 (Fab, name in Kabat numbering, V domains shown)
VH: B1 VH
VL: B1 VL with S55A, R56S, Y57N, S59E, R60S, Q93N, Q94N, E97G, T101N
notes: as for B1
B13: huMA79b graft variant SEQ ID NO: 100 (Fab, name in Kabat numbering, V domains shown)
VH: B1 VH with Y103R, F104L
VL: B1 VL with S55A, R56S, Y57N, S59E, R60S
notes: as for B1
B14: huMA79b graft variant SEQ ID NO: 83 (Fab, name in Kabat numbering, V domains shown)
VH: B1 VH with T28P, S30N, S31G, E35N
VL: B1 VL with S55A, R56S, Y57N, S59E, R60S
notes: as for B1
B15: huMA79b graft variant SEQ ID NO: 72 (Fab, name in Kabat numbering, V domains shown)
VH: B1 VH with S30R, S31R, E35N
VL: B1 VL with S55A, R56S, Y57N, S59E, R60S
notes: as for B1
B16: huMA79b graft variant SEQ ID NO: 36 (Fab, name in Kabat numbering, V domains shown)
VH: B1 VH
VL: B1 VL with S55A, R56S, Y57K, S59G, R60S
notes: as for B1
B17: huMA79b graft variant SEQ ID NO: 85 (Fab, name in Kabat numbering, V domains shown)
VH: B1 VH with Y27F, T28P, S30T, E35S
VL: B1 VL with S55A, R56S, Y57N, S59E, R60S
notes: as for B1
B18: huMA79b graft variant SEQ ID NO: 59 (Fab, name in Kabat numbering, V domains shown)
VH: B1 VH with T28S, S30K
VL: B1 VL with S55A, R56S, Y57N, S59E, R60S
notes: as for B1
B19: huMA79b graft variant SEQ ID NO: 69 (Fab, name in Kabat numbering, V domains shown)
VH: B1 VH with S30T, I34L, E35S
VL: B1 VL with S55A, R56S, Y57N, S59E, R60S
notes: as for B1
B20: huMA79b graft variant SEQ ID NO: 55 (Fab, name in Kabat numbering, V domains shown)
VH: B1 VH with T28P, S30R, E35Q
VL: B1 VL with S55A, R56S, Y57N, S59E, R60S
notes: as for B1
B21: huMA79b graft variant SEQ ID NO: 98 (Fab, name in Kabat numbering, V domains shown)
VH: B1 VH with D105S
VL: B1 VL with S55A, R56S, Y57N, S59E, R60S
notes: as for B1
B22: huMA79b graft variant SEQ ID NO: 58 (Fab, name in Kabat numbering, V domains shown)
VH: B1 VH with S30N, S31R, E35N
VL: B1 VL with S55A, R56S, Y57N, S59E, R60S
notes: as for B1
B23: huMA79b graft variant SEQ ID NO: 50 (Fab, name in Kabat numbering, V domains shown)
VH: B1 VH
VL: B1 VL with S55A, R56S, Y57N, S59E, R60S, E97L
notes: as for B1
B24: huMA79b graft variant SEQ ID NO: 79 (Fab, name in Kabat numbering, V domains shown)
VH: B1 VH with T28P, S30R, E35S
VL: B1 VL with S55A, R56S, Y57N, S59E, R60S
notes: as for B1
B25: huMA79b graft variant SEQ ID NO: 80 (Fab, name in Kabat numbering, V domains shown)
VH: B1 VH with T28P, S30R, E35N
VL: B1 VL with S55A, R56S, Y57N, S59E, R60S
notes: as for B1
B26: huMA79b graft variant SEQ ID NO: 66 (Fab, name in Kabat numbering, V domains shown)
VH: B1 VH with T28P, F29V, S30G, S31R, E35S
VL: B1 VL with S55A, R56S, Y57N, S59E, R60S
notes: as for B1
B27: huMA79b graft variant SEQ ID NO: 81 (Fab, name in Kabat numbering, V domains shown)
VH: B1 VH with T28P, S30R, S31G
VL: B1 VL with S55A, R56S, Y57N, S59E, R60S
notes: as for B1
B28: huMA79b graft variant SEQ ID NO: 99 (Fab, name in Kabat numbering, V domains shown)
VH: B1 VH with Y103V, F104L
VL: B1 VL with S55A, R56S, Y57N, S59E, R60S
notes: as for B1
B29: huMA79b graft variant SEQ ID NO: 56 (Fab, name in Kabat numbering, V domains shown)
VH: B1 VH with T28P, S30T, E35N
VL: B1 VL with S55A, R56S, Y57N, S59E, R60S
notes: as for B1
B30: huMA79b graft variant SEQ ID NO: 96 (Fab, name in Kabat numbering, V domains shown)
VH: B1 VH with V102I, Y103R
VL: B1 VL with S55A, R56S, Y57N, S59E, R60S
notes: as for B1
B31: huMA79b graft variant SEQ ID NO: 92 (Fab, name in Kabat numbering, V domains shown)
VH: B1 VH with V102F, Y103C, F104L
VL: B1 VL with S55A, R56S, Y57N, S59E, R60S
notes: as for B1
B32: huMA79b graft variant SEQ ID NO: 35 (Fab, name in Kabat numbering, V domains shown)
VH: B1 VH
VL: B1 VL with S55A, R56S, Y57N, L58R, S59K, R60S
notes: as for B1
B33: huMA79b graft variant SEQ ID NO: 76 (Fab, name in Kabat numbering, V domains shown)
VH: B1 VH with T28S, S30P, I34L, E35Q
VL: B1 VL with S55A, R56S, Y57N, S59E, R60S
notes: as for B1
B34: huMA79b graft variant SEQ ID NO: 63 (Fab, name in Kabat numbering, V domains shown)
VH: B1 VH with S30K, S31K
VL: B1 VL with S55A, R56S, Y57N, S59E, R60S
notes: as for B1
B35: huMA79b graft variant SEQ ID NO: 84 (Fab, name in Kabat numbering, V domains shown)
VH: B1 VH with T28N, F29V, I34L, E35S
VL: B1 VL with S55A, R56S, Y57N, S59E, R60S
notes: as for B1
B36: huMA79b graft variant SEQ ID NO: 74 (Fab, name in Kabat numbering, V domains shown)
VH: B1 VH with T28S, S30R, S31R, E35N
VL: B1 VL with S55A, R56S, Y57N, S59E, R60S
notes: as for B1
B37: huMA79b graft variant SEQ ID NO: 73 (Fab, name in Kabat numbering, V domains shown)
VH: B1 VH with T28S, S30R, E35N
VL: B1 VL with S55A, R56S, Y57N, S59E, R60S
notes: as for B1
B38: huMA79b graft variant SEQ ID NO: 53 (Fab, name in Kabat numbering, V domains shown)
VH: B1 VH
VL: B1 VL with S55A, R56S, Y57N, S59E, R60S, Q93D, S95R, E97A
notes: as for B1
B39: huMA79b graft variant SEQ ID NO: 34 (Fab, name in Kabat numbering, V domains shown)
VH: B1 VH
VL: B1 VL with S55G, R56S, Y57K, S59L
notes: as for B1
B40: huMA79b graft variant SEQ ID NO: 61 (Fab, name in Kabat numbering, V domains shown)
VH: B1 VH with T28Y, S30T
VL: B1 VL with S55A, R56S, Y57N, S59E, R60S
notes: as for B1
B41: huMA79b graft variant SEQ ID NO: 65 (Fab, name in Kabat numbering, V domains shown)
VH: B1 VH with T28P, S30R, S31R
VL: B1 VL with S55A, R56S, Y57N, S59E, R60S
notes: as for B1
B42: huMA79b graft variant SEQ ID NO: 78 (Fab, name in Kabat numbering, V domains shown)
VH: B1 VH with T28P, S31G
VL: B1 VL with S55A, R56S, Y57N, S59E, R60S
notes: as for B1
B43: huMA79b graft variant SEQ ID NO: 89 (Fab, name in Kabat numbering, V domains shown)
VH: B1 VH with Y103K, F104L
VL: B1 VL with S55A, R56S, Y57N, S59E, R60S
notes: as for B1
B44: huMA79b graft variant SEQ ID NO: 95 (Fab, name in Kabat numbering, V domains shown)
VH: B1 VH with V102I, Y103K, F104L
VL: B1 VL with S55A, R56S, Y57N, S59E, R60S
notes: as for B1
B45: huMA79b graft variant SEQ ID NO: 75 (Fab, name in Kabat numbering, V domains shown)
VH: B1 VH with T28S, S30R, S31R
VL: B1 VL with S55A, R56S, Y57N, S59E, R60S
notes: as for B1
B46: huMA79b graft variant SEQ ID NO: 68 (Fab, name in Kabat numbering, V domains shown)
VH: B1 VH with T28G, S30T, E35S
VL: B1 VL with S55A, R56S, Y57N, S59E, R60S
notes: as for B1

molecular target: T1, extracellular domain of human CD79b; test: phage selection, Fab on phage, plate-bound huCD79becd

| Binder | binding result |
| --- | --- |
| B1 | binds |
| B2 | binds |
| B3 | binds |
| B4 | binds |
| B5 | binds |
| B6 | binds |
| B7 | binds |
| B8 | binds |
| B9 | binds |
| B10 | binds |
| B11 | binds |
| B12 | binds |
| B13 | binds |
| B14 | binds |
| B15 | binds |
| B16 | binds |
| B17 | binds |
| B18 | binds |
| B19 | binds |
| B20 | binds |
| B21 | binds |
| B22 | binds |
| B23 | binds |

| Binder | binding result |
| --- | --- |
| B24 | binds |
| B25 | binds |
| B26 | binds |
| B27 | binds |
| B28 | binds |
| B29 | binds |
| B30 | binds |
| B31 | binds |
| B32 | binds |
| B33 | binds |
| B34 | binds |
| B35 | binds |
| B36 | binds |
| B37 | binds |
| B38 | binds |
| B39 | binds |
| B40 | binds |
| B41 | binds |
| B42 | binds |
| B43 | binds |
| B44 | binds |
| B45 | binds |
| B46 | binds |
